From patent US20240116985A1 (published 2024)
One block for each binder: values may come before it. Starred links: 1 amine or outer side, 2 acyl side, 3 side chain; linkers in the order of their positions; H or OH if unused. Positions of bridges follow the written chain, without caps; N, C: chain ends. Non-standard residues stand in square brackets, D forms with d. Primed or numbered codes have the meaning given here. PyrS2″ = (S)-3-amino-1-((pent-4-en-1-yloxy)carbonyl)pyrrolidine-3-carboxylic acid (stapling residue), C=CCCCOC(=O)N1CC[C@@](N[*:1])(C(=O)[*:2])C1; B5(16) = 2-amino-2-(pent-4-en-1-yl)hept-6-enoic acid = 2,2-bis(4-pentenyl)glycine (stitching residue), C=CCCCC(CCCC=C)(N[*:1])C(=O)[*:2]; B5(4) = 2,2-bis(4-pentenyl)glycine = 2-amino-2-(pent-4-en-1-yl)hept-6-enoic acid (stitching residue), C=CCCCC(CCCC=C)(N[*:1])C(=O)[*:2]; B5(21) = 2-amino-2-(pent-4-en-1-yl)hept-6-enoic acid, bis(4-pentenyl)glycine (stitching residue), C=CCCCC(CCCC=C)(N[*:1])C(=O)[*:2]; (NHCyPr)AsnR = N4-cyclopropyl-L-asparagine, O=C(C[C@H](N[*:1])C(=O)[*:2])NC1CC1; (NHiPr)AsnR = N4-isopropyl-L-asparagine, CC(C)NC(=O)C[C@H](N[*:1])C(=O)[*:2]; (NHEt)AsnR = N4-ethyl-L-asparagine, CCNC(=O)C[C@H](N[*:1])C(=O)[*:2]; TOMe = O-methyl-L-threonine, CO[C@H](C)[C@H](N[*:1])C(=O)[*:2]; Phe(3-COOH) = N[C@@H](Cc1cccc(C(=O)O)c1)C(=O)O; 2F3MeF = Cc1cccc(C[C@H](N[*:1])C(=O)[*:2])c1F; Phe(2-CF3) = N[C@@H](Cc1ccccc1C(F)(F)F)C(=O)O; AcLys = CC(=O)NCCCC[C@H](N[*:1])C(=O)[*:2]; Bta = N[C@@H](Cc1csc2ccccc12)C(=O)O; αAllylPro = C=CC[C@@]1(C(=O)O)CCCN1; tBuAla = CC(C)(C)C[C@H](N)C(=O)O; S8 = C=CCCCCCC[C@](C)(N)C(=O)O

Legend:
[1] = target: T1, full-length beta-Catenin (Uniprot ID P35222) (Homo sapiens (Human), UniProt P35222 1-781); experiment: fluorescence polarization competition; full-length beta-catenin with 5FAM-labeled TCF4 residues 10-53 probe as competitor
T1 construct: also called bCat; B-Catenin
T1 sequence: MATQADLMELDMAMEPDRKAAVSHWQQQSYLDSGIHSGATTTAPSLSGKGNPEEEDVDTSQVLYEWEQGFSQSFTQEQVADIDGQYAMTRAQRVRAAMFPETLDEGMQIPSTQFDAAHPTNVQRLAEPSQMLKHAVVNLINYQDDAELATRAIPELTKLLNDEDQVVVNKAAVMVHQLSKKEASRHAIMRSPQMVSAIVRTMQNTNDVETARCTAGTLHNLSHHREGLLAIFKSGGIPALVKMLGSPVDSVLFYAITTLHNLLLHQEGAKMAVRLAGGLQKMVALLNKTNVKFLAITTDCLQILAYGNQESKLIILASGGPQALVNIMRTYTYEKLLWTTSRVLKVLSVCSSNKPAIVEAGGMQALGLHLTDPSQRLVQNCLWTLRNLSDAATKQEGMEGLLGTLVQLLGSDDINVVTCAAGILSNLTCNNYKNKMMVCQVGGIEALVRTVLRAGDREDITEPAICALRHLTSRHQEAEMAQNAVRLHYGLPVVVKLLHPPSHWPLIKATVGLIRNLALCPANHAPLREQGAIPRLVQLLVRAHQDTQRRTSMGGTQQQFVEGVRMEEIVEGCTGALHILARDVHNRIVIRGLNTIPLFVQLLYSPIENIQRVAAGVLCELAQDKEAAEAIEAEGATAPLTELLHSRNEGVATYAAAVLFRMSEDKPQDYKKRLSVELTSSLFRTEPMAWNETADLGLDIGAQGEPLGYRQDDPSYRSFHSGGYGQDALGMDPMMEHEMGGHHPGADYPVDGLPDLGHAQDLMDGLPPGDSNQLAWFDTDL
Procedure: (§1) The plate was incubated protected from light for 60 minutes at 20° C. prior to read. Reads were performed on a CLARIOstar plate reader (BMG Labtech) in duplicate, and data were fitted to a 1:1 binding model with hill slope using an in-house script. All provided concentrations are final concentrations.

B-cat-Halo = target: T2, B-cat-Halo (UniProt P35222 1-781, HaloTag NanoBRET 618 Ligand bound in the assay); experiment: cell-based or functional assay
T2 sequence (looked up): T1 sequence

[2] = target: T3, full-length beta-Catenin (Uniprot ID P35222) (Homo sapiens (Human), UniProt P35222 2-781); experiment: fluorescence polarization competition; full-length beta-catenin, competitor 5FAM-TCF4 10-53
T3 construct: Tags of the recombinant protein are not described for the FP assay; also called bCat; B-Catenin
T3 sequence: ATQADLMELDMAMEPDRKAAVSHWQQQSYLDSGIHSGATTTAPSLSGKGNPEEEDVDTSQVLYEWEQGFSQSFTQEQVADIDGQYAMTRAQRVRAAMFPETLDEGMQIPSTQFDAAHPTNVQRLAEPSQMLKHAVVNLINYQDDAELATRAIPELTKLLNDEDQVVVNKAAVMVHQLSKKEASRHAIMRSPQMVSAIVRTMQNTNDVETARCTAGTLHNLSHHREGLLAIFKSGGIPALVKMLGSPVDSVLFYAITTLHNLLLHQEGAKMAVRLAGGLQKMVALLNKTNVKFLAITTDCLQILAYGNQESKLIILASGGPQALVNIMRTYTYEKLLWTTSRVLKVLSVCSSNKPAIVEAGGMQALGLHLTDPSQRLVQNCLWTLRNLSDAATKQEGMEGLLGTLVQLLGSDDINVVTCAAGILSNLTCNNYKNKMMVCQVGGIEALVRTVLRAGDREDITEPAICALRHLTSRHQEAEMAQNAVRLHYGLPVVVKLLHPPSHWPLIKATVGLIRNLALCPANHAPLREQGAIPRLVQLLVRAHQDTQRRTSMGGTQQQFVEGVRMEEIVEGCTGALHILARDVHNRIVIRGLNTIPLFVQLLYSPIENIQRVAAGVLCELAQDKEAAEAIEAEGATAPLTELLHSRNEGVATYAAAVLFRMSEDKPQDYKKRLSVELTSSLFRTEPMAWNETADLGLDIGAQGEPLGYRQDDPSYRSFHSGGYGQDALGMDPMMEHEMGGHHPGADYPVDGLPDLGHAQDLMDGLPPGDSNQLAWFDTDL
Procedure: as §1

IC50 [1]: 5 µM
Binder: Ac-[αAllylPro]DA[B5(21)][(NHCyPr)AsnR]DAAFV[S8]F[Bta]Q-NH2 (staple 1-4, 4-11) [I-538]

NanoBRET Abs IC50 (B-cat-Halo): 2.5 µM
B1: I-2549 (peptide)
peptide: Ac-[αAllylPro]D[tBuAla][B5(4)]D[Phe(3-COOH)]AAF[AcLys][PyrS2″][2F3MeF][Bta][MorphGln]-NH2
modifications: staple 1-4, 4-11; not fully specified; printed as Ac-PL3-Asp-Npg-B5-Asp-3COOHF-Ala-Ala-Phe-AcLys-PyrS2-2F3MeF-BztA-MorphGln-NH2

NanoBRET Abs IC50 (B-cat-Halo): 3.5 µM
B2: I-2546 (peptide)
peptide: Ac-[αAllylPro]D[tBuAla][B5(4)]D[Phe(3-COOH)]AAF[MorphGln][PyrS2″][2F3MeF][Bta][MorphGln]-NH2
modifications: staple 1-4, 4-11; not fully specified; printed as Ac-PL3-Asp-Npg-B5-Asp-3COOHF-Ala-Ala-Phe-MorphGln-PyrS2-2F3MeF-BztA-MorphGln-NH2

NanoBRET Abs IC50 (B-cat-Halo): 3.6 µM
B3: I-2548 (peptide)
peptide: Ac-[αAllylPro]D[tBuAla][B5(4)]D[Phe(3-COOH)]AAF[AcLys][PyrS2″][2F3MeF][Bta][MorphGln]-NH2
modifications: staple 1-4, 4-11; not fully specified; printed as Ac-PL3-Asp-Npg-B5-Asp-3COOHF-Ala-Ala-Phe-AcLys-PyrS2-2F3MeF-BztA-MorphGln-NH2

NanoBRET Abs IC50 (B-cat-Halo): 7.3 µM
Binder: Ac-[αAllylPro]D[tBuAla][B5(4)]D[Phe(3-COOH)]AAFF[PyrS2″][Phe(2-CF3)][Bta][MorphGln]-NH2 (staple 1-4, 4-11) [I-2543]

IC50 [1]: 4.47 µM
Binder: Ac-[αAllylPro]DA[B5(21)][(NHEt)AsnR]DAAFV[S8]F[Bta]Q-NH2 (staple 1-4, 4-11) [I-536]

IC50 [1]: 0.109 µM
B4: I-542 (peptide)
peptide: XDTXDEAAFQXFXQ
modifications: not fully specified; N-terminal Ac; PL3 at 1; TOMe at 3; B5 at 4; S8 at 11; BztA at 13; C-terminal NH2; staples PL3(1)-B5(4) and B5(4)-S8(11) by olefin metathesis

NanoBRET Abs IC50 (B-cat-Halo): 4.1 µM
B5: I-2544 (peptide)
peptide: Ac-[αAllylPro]D[tBuAla][B5(4)]D[Phe(3-COOH)]AAF[Me2Gln][PyrS2″][2F3MeF][Bta][MorphGln]-NH2
modifications: staple 1-4, 4-11; not fully specified; printed as Ac-PL3-Asp-Npg-B5-Asp-3COOHF-Ala-Ala-Phe-Me2Gln-PyrS2-2F3MeF-BztA-MorphGln-NH2

IC50 [2]: 5 µM
B6: I-637 (peptide)
peptide: XDIXDEAAFQXFXP
modifications: not fully specified; As printed: Ac-PL3-Asp-Ile-B5-Asp-Glu-Ala-Ala-Phe-Gln-S8-Phe-BztA-Pro-NH2; N-terminal Ac, C-terminal NH2; PL3 (1), B5 (4), S8 (11), BztA (13); staples PL3-B5 and B5-S8 by olefin metathesis
notes: Stapled peptide composition; also called Ac-PL3-Asp-Ile-B5-Asp-Glu-Ala-Ala-Phe-Gln-S8-Phe-BztA-Pro-NH2

IC50 [2]: 0.171 µM
B7: I-635 (peptide)
peptide: Ac-[αAllylPro]DI[B5(16)]DEAAFQ[S8]F[Bta]F-NH2
modifications: staple 1-4, 4-11
notes: Stapled peptide composition; also called Ac-PL3-Asp-Ile-B5-Asp-Glu-Ala-Ala-Phe-Gln-S8-Phe-BztA-Phe-NH2

IC50 [2]: 0.088 µM
B8: I-633 (peptide)
peptide: Ac-[αAllylPro]DI[B5(16)]DEAAFQ[S8]F[Bta]R-NH2
modifications: staple 1-4, 4-11
notes: Stapled peptide composition; also called Ac-PL3-Asp-Ile-B5-Asp-Glu-Ala-Ala-Phe-Gln-S8-Phe-BztA-Arg-NH2

IC50 [2]: 0.425 µM
B9: I-634 (peptide)
peptide: Ac-[αAllylPro]DI[B5(16)]DEAAFQ[S8]F[Bta]L-NH2
modifications: staple 1-4, 4-11
notes: Stapled peptide composition; also called Ac-PL3-Asp-Ile-B5-Asp-Glu-Ala-Ala-Phe-Gln-S8-Phe-BztA-Leu-NH2

IC50 [1]: 0.18 µM
Binder: Ac-[αAllylPro]D[TOMe][B5(21)]DEAAFQ[S8]F[Bta]Q-NH2 (staple 1-4, 4-11, It has the same description as I-542) [I-541]

IC50 [1]: 5 µM
Binder: Ac-[αAllylPro]DA[B5(21)][(NHiPr)AsnR]DAAFV[S8]F[Bta]Q-NH2 (staple 1-4, 4-11) [I-535]
